Measurements from the supplement of paper PMC9112550, “Optimization of the antimicrobial peptide Bac7 by deep mutational scanning” (BMC Biology, 2022).

Tested on: Escherichia coli TOP10
Assay: shrunken log2 fold change of peptide-encoding DNA abundance (4.5 h post-induction vs induction); higher = less antimicrobial activity (less host growth inhibition)
Conditions: time post-induction: 4.5 h; library: site-saturation at positions 5, 18, 19, 20
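Further: peptides expressed intracellularly from a pBAD plasmid library in pooled LB shake-flask culture, induced with 0.3% L-arabinose, DNA abundance read by NGS, three biological replicates, DESeq2 with apeglm shrinkage.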

Sequence	shrunken log2 fold change
RRIRARPPRLPRPRPRPAHIPRP	0.241
RRIRWRPPRLPRPRPRPDTHPRP	0.219
RRIRRRPPRLPRPRPRPITKPRP	0.165
RRIRGRPPRLPRPRPRPERNPRP	0.855
RRIRYRPPRLPRPRPRPDSRPRP	-0.0156
RRIRNRPPRLPRPRPRPWQSPRP	-0.0702
RRIRYRPPRLPRPRPRPDILPRP	0.0101
RRIRHRPPRLPRPRPRPWIAPRP	0.143
RRIRERPPRLPRPRPRPHMTPRP	0.0464
RRIRERPPRLPRPRPRPRIQPRP	-0.362
RRIRMRPPRLPRPRPRPILGPRP	-0.00884
RRIRSRPPRLPRPRPRPWQAPRP	0.214
RRIRSRPPRLPRPRPRPEGMPRP	0.392
RRIRLRPPRLPRPRPRPHKQPRP	-0.0935
RRIRWRPPRLPRPRPRPTKTPRP	0.0481
RRIRCRPPRLPRPRPRPSHPPRP	-0.0807
RRIRTRPPRLPRPRPRPFSMPRP	-0.0868
RRIRERPPRLPRPRPRPKWPPRP	0.016
RRIRSRPPRLPRPRPRPLNKPRP	-0.343
RRIRVRPPRLPRPRPRPLREPRP	0.379
RRIRLRPPRLPRPRPRPNEHPRP	-0.175
RRIRKRPPRLPRPRPRPFHVPRP	-0.265
RRIRNRPPRLPRPRPRPCIAPRP	-0.878
RRIRPRPPRLPRPRPRPNMKPRP	-0.52
RRIRERPPRLPRPRPRPNNWPRP	-0.524

Sequence	shrunken log2 fold change
RRIRIRPPRLPRPRPRPYPMPRP	-0.0519
RRIRYRPPRLPRPRPRPLHGPRP	-0.0615
RRIRTRPPRLPRPRPRPVQYPRP	-0.246
RRIRCRPPRLPRPRPRPRVMPRP	0.278
RRIRDRPPRLPRPRPRPGCEPRP	0.852
RRIRPRPPRLPRPRPRPVDPPRP	0.0557
RRIRGRPPRLPRPRPRPKTDPRP	0.797
RRIRMRPPRLPRPRPRPHFKPRP	-0.0841
RRIRVRPPRLPRPRPRPNWEPRP	0.104
RRIRRRPPRLPRPRPRPQSYPRP	-0.0292
RRIRDRPPRLPRPRPRPLMMPRP	0.0576
RRIRDRPPRLPRPRPRPMWYPRP	-0.0225
RRIRGRPPRLPRPRPRPFRLPRP	-0.194
RRIRFRPPRLPRPRPRPSYPPRP	-0.161
RRIRMRPPRLPRPRPRPVLHPRP	-0.309
RRIRLRPPRLPRPRPRPDKMPRP	-0.121
RRIRKRPPRLPRPRPRPLKRPRP	0.321
RRIRMRPPRLPRPRPRPEESPRP	0.113
RRIRFRPPRLPRPRPRPEQLPRP	0.178
RRIRSRPPRLPRPRPRPSWEPRP	0.0729
RRIRGRPPRLPRPRPRPCYQPRP	0.219
RRIRARPPRLPRPRPRPVGEPRP	0.482
RRIRERPPRLPRPRPRPYHFPRP	-0.177
RRIRKRPPRLPRPRPRPLKSPRP	0.713
RRIRVRPPRLPRPRPRPTFNPRP	0.127

Sequence	shrunken log2 fold change
RRIRPRPPRLPRPRPRPWCQPRP	0.0224
RRIRKRPPRLPRPRPRPALHPRP	0.374
RRIRERPPRLPRPRPRPGGAPRP	0.276
RRIRKRPPRLPRPRPRPCSWPRP	0.123
RRIRVRPPRLPRPRPRPPKFPRP	0.133
RRIRPRPPRLPRPRPRPRDCPRP	0.277
RRIRERPPRLPRPRPRPSCAPRP	-0.173
RRIRDRPPRLPRPRPRPAQHPRP	0.288
RRIRLRPPRLPRPRPRPRQTPRP	1.27
RRIRCRPPRLPRPRPRPEFAPRP	0.375
RRIRWRPPRLPRPRPRPVSEPRP	0.0771
RRIRLRPPRLPRPRPRPWGGPRP	1.94
RRIRNRPPRLPRPRPRPKKCPRP	-0.209
RRIRNRPPRLPRPRPRPSEAPRP	0.00843
RRIRARPPRLPRPRPRPPGPPRP	0.703
RRIRYRPPRLPRPRPRPSFLPRP	-0.994
RRIRIRPPRLPRPRPRPKTNPRP	-0.334
RRIRLRPPRLPRPRPRPTWDPRP	0.183
RRIRYRPPRLPRPRPRPGHEPRP	-0.18
RRIRVRPPRLPRPRPRPYSMPRP	-0.692
RRIRIRPPRLPRPRPRPQTMPRP	-0.0804
RRIRERPPRLPRPRPRPPPGPRP	0.418
RRIRERPPRLPRPRPRPIAFPRP	0.0152
RRIRFRPPRLPRPRPRPLVVPRP	-0.0929
RRIRPRPPRLPRPRPRPDLRPRP	-0.124

Sequence	shrunken log2 fold change
RRIRGRPPRLPRPRPRPCSFPRP	0.2
RRIRNRPPRLPRPRPRPNGTPRP	-0.167
RRIRQRPPRLPRPRPRPWPHPRP	0.172
RRIRCRPPRLPRPRPRPYNNPRP	-1.23
RRIRPRPPRLPRPRPRPRIVPRP	-0.0281
RRIRSRPPRLPRPRPRPCYVPRP	-0.338
RRIRCRPPRLPRPRPRPEIGPRP	-0.237
RRIRQRPPRLPRPRPRPGECPRP	-0.0823
RRIRARPPRLPRPRPRPLWWPRP	0.648
RRIRVRPPRLPRPRPRPMHDPRP	-0.134
RRIRARPPRLPRPRPRPKFNPRP	-0.129
RRIRTRPPRLPRPRPRPEANPRP	-0.0399
RRIRDRPPRLPRPRPRPCTGPRP	-0.0116
RRIRYRPPRLPRPRPRPNMAPRP	-0.00884
RRIRDRPPRLPRPRPRPVEPPRP	0.0157
RRIRFRPPRLPRPRPRPACYPRP	-0.066
RRIRSRPPRLPRPRPRPARYPRP	-0.0163
RRIRLRPPRLPRPRPRPPCAPRP	0.457
RRIRWRPPRLPRPRPRPTDQPRP	0.203
RRIRERPPRLPRPRPRPPETPRP	-0.0785
RRIRGRPPRLPRPRPRPQYMPRP	-0.195
RRIRARPPRLPRPRPRPKKFPRP	0.138
RRIRWRPPRLPRPRPRPGPSPRP	0.223
RRIRVRPPRLPRPRPRPVTYPRP	-0.288
RRIRFRPPRLPRPRPRPWRTPRP	-0.0041

Sequence	shrunken log2 fold change
RRIRTRPPRLPRPRPRPECAPRP	0.459
RRIRSRPPRLPRPRPRPIKPPRP	0.0213
RRIRHRPPRLPRPRPRPFNFPRP	-0.648
RRIRVRPPRLPRPRPRPYTNPRP	-0.656
RRIRDRPPRLPRPRPRPCMFPRP	-0.00227
RRIRVRPPRLPRPRPRPYHEPRP	-0.159
RRIRMRPPRLPRPRPRPVAEPRP	2.88
RRIRDRPPRLPRPRPRPAMVPRP	0.282
RRIRARPPRLPRPRPRPIEFPRP	-0.0488
RRIRRRPPRLPRPRPRPLGTPRP	0.547
RRIRARPPRLPRPRPRPAKIPRP	0.321
RRIRLRPPRLPRPRPRPYRFPRP	0.0498
RRIRDRPPRLPRPRPRPFLAPRP	0.341
RRIRRRPPRLPRPRPRPYKIPRP	-0.158
RRIRSRPPRLPRPRPRPTANPRP	0.293
RRIRSRPPRLPRPRPRPDLVPRP	0.0452
RRIRKRPPRLPRPRPRPAWYPRP	0.205
RRIRPRPPRLPRPRPRPNQWPRP	0.139
RRIRQRPPRLPRPRPRPTMYPRP	-0.352
RRIRGRPPRLPRPRPRPVDWPRP	1.03
RRIRMRPPRLPRPRPRPCYKPRP	-0.145
RRIRARPPRLPRPRPRPVFVPRP	0.179
RRIRGRPPRLPRPRPRPMFMPRP	0.0699
RRIRCRPPRLPRPRPRPDDSPRP	0.14
RRIRCRPPRLPRPRPRPNYQPRP	-0.212
